Results as given in US20250154277A1 (CONCEPT TO MEDICINE BIOTECH, published 2025).
Read-outs that look alike come from different tables or passages of the source. One block for each binder: values may come before it.

Experiments:
[1] = target: T1, human 5T4-His protein (human, UniProt Q13641 32-355); experiment: ELISA, coated 5T4-His
T1 construct: also called recombinant 5T4 protein (human 5T4-his tag); human 5T4 protein; not shown: His tag
T1 sequence (looked up): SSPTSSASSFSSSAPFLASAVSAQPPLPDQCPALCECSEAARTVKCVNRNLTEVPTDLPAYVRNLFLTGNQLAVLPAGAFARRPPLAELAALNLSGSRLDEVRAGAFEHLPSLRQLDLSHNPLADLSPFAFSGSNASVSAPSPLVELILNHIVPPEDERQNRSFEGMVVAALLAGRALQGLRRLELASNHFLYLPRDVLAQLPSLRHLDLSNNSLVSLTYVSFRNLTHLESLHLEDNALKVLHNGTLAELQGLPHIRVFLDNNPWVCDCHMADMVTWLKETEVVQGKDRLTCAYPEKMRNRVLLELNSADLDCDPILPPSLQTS
Protocol: To evaluate the binding activity of 14G12 humanized antibodies to human 5T4, the 14G12 chimeric antibody along with 14G12 humanized mAbs were subjected to ELISA test.
Briefly, microtiter plates were coated with human 5T4-His protein at 1 μg/ml in PBS, 100 μl/well at 4° C. overnight, then blocked with […]. Serial dilutions of antibodies were added to each well and incubated for 1 hour at 37° C. The plates were washed with PBS/Tween and then incubated with Goat Anti-Human IgG-HRP for 30 mins at 37° C. After washing, the plates were developed with TMB substrate and analyzed by spectrophotometer at OD 450 nm. As shown in FIG. 10 and Table 6, most of the humanized antibodies bound to human 5T4 at high activity.

[2] = target: T1, human 5T4-His protein; experiment: SPR Biacore, Protein A capture
Protocol: (§1) The binding of the 14G12 humanized antibodies to recombinant 5T4 protein (human 5T4-his tag) was tested with Biacore using a capture method. The mAbs were captured using Protein A chip. Serial dilution of human 5T4-his tag protein was injected over captured antibody for 120 s-180 s at a flow rate of 30 μl/min. The antigen was allowed to dissociate for 360 s-1000 s. All the experiments were carried out on a Biacore T200. Data analysis was carried out using the Biacore T200 evaluation software.

[3] = target: T1, human 5T4-His protein; experiment: ELISA, coated 5T4-His; remark: listed apart in the source
Protocol: To evaluate the binding activity of 393E9 humanized antibodies to human 5T4, the 393E9 chimeric antibody (393E9-C) along with 393E9 humanized mAbs were subjected to ELISA test.
Briefly, microtiter plates were coated with human 5T4-His protein at 1 μg/ml in PBS, 100 μl/well at 4° C. overnight, then blocked with 150 μl/well of 1% BSA. 4-fold dilutions of antibodies starting from 20 nM were added to each well and incubated for 1 hour at 37° C. The plates were washed with PBS/Tween and then incubated with Goat Anti-Human IgG-HRP for 30 mins at 37° C. After washing, the plates were developed with TMB substrate and analyzed by spectrophotometer at OD 450 nm. As shown in FIG. 12 and Table 9, most of the humanized antibodies bound to human 5T4 with high activity.

[4] = target: T1, human 5T4-His protein; experiment: SPR Biacore, Protein A capture; remark: listed apart in the source
Protocol: as §1, with “393E9” for “14G12”, “A serial” for “Serial”, “3 mins” for “120 s-180 s”, “280-800” for “360 s-1000”

B1: Hu14G12-18 (antibody, V domains shown)
VH: QVQLVQSGAEVKKPGSSVKVSCKASGGTFSSSWMNWVKQAPGQGLEWIGRIYREDGHTNYNGKFKGKATLTADKSTSTAYMELSSLRSEDTAVYFCANGGAMDYWGQGTTVTVSS
VL: DIQMTQSPSSLSASVGDRVTITCRASQDISNYLNWYQQKPGKVPKLLIYYTSRLHSGVPSRFSGSGSGTDYTLTISSLQPEDVATYFCQQDNTLPWTFGGGTKLEIK
notes: humanized
EC50 [1]: 0.31 µg/mL
Kd [2]: 4.55 nM
koff [2]: 0.00178 s⁻¹
kon [2]: 392000 M⁻¹ s⁻¹

B2: 393E9_hVH1_hVL1 (antibody, V domains shown)
VH: EVQLVESGGGLVQPGGSLRLSCAASGFTFTDYYMSWVRQAPGKGLEWVGFIRNKGNGYTTENSASVKGRFTISRDNSKSTLYLQMNSLRAEDTAVYYCARYRGNPHYAMDYWGQGTLVTVSS
VL: DIVLTQSPDSLAVSLGERATINCRASESVEFYGTSFLQWYQQKPGQPPKLLIYGASNVESGVPDRFSGSGSGTDFTLTISSLQAEDIAVYFCQQSRKVPSTFGGGTKVEIK
notes: humanized
EC50 [3]: 0.18 nM

B4: 393E9_hVH3_hVL1 (antibody, V domains shown)
VH: QVQLVESGGGVVQPGGSLRLSCAASGFTFTDYYMSWVRQAPGKGLEWVGFIRNKGNGYTTENSASVKGRFTISRDNSKSTLYLQMNSLRAEDTAVYYCARYRGNPHYAMDYWGQGTLVTVSS
VL: DIVLTQSPDSLAVSLGERATINCRASESVEFYGTSFLQWYQQKPGQPPKLLIYGASNVESGVPDRFSGSGSGTDFTLTISSLQAEDIAVYFCQQSRKVPSTFGGGTKVEIK
notes: humanized
EC50 [3]: 0.16 nM
Kd [4]: 0.506 nM
koff [4]: 0.000108 s⁻¹
kon [4]: 213000 M⁻¹ s⁻¹

B5: 393E9_hVH4_hVL1 (antibody, V domains shown)
VH: EVQLVESGGGLVQPGGSLRLSCAASGFTFTDYYMSWVRQAPGKGLEWVGFIRNKGNGYTTENSASVKGRFTISRDNSKSSLYLQMNSLKTEDTAVYYCARYRGNPHYAMDYWGQGTLVTVSS
VL: DIVLTQSPDSLAVSLGERATINCRASESVEFYGTSFLQWYQQKPGQPPKLLIYGASNVESGVPDRFSGSGSGTDFTLTISSLQAEDIAVYFCQQSRKVPSTFGGGTKVEIK
notes: humanized
EC50 [3]: 0.13 nM

B8: 393E9_hVH1_hVL2 (antibody, V domains shown)
VH: EVQLVESGGGLVQPGGSLRLSCAASGFTFTDYYMSWVRQAPGKGLEWVGFIRNKGNGYTTENSASVKGRFTISRDNSKSTLYLQMNSLRAEDTAVYYCARYRGNPHYAMDYWGQGTLVTVSS
VL: EIVLTQSPATLSVSPGERATLSCRASESVEFYGTSFLQWYQQKPGQAPRLLIYGASNVESGIPARFSGSGSGTEFTLTISSLQSEDIAVYFCQQSRKVPSTFGGGTKVEIK
notes: humanized
EC50 [3]: 0.16 nM

B12: 393E9_hVH5_hVL2 (antibody, V domains shown)
VH: EVQLVESGGGLVQPGRSLRLSCTASGFTFTDYYMSWVRQAPGKGLEWVGFIRNKGNGYTTENSASVKGRFTISRDNSKSILYLQMNSLKTEDTAVYYCARYRGNPHYAMDYWGQGTLVTVSS
VL: EIVLTQSPATLSVSPGERATLSCRASESVEFYGTSFLQWYQQKPGQAPRLLIYGASNVESGIPARFSGSGSGTEFTLTISSLQSEDIAVYFCQQSRKVPSTFGGGTKVEIK
notes: humanized
EC50 [3]: 0.27 nM

Further lines, results first:

EC50 [3]: 0.17 nM
Kd [4]: 0.547 nM
koff [4]: 0.000104 s⁻¹
kon [4]: 190000 M⁻¹ s⁻¹
B3: 393E9_hVH2_hVL1 (antibody, V domains shown)
VH: EVQLVESGGGLIQPGGSLRLSCAASGFTFTDYYMSWVRQPPGKGLEWVGFIRNKGNGYTTENSASVKGRFTISRDNSKSTLYLQMNSLRAEDTAVYYCARYRGNPHYAMDYWGQGTLVTVSS
VL: DIVLTQSPDSLAVSLGERATINCRASESVEFYGTSFLQWYQQKPGQPPKLLIYGASNVESGVPDRFSGSGSGTDFTLTISSLQAEDIAVYFCQQSRKVPSTFGGGTKVEIK
notes: humanized

EC50 [3]: 0.16 nM
B6: 393E9_hVH5_hVL1 (antibody, V domains shown)
VH: EVQLVESGGGLVQPGRSLRLSCTASGFTFTDYYMSWVRQAPGKGLEWVGFIRNKGNGYTTENSASVKGRFTISRDNSKSILYLQMNSLKTEDTAVYYCARYRGNPHYAMDYWGQGTLVTVSS
VL: DIVLTQSPDSLAVSLGERATINCRASESVEFYGTSFLQWYQQKPGQPPKLLIYGASNVESGVPDRFSGSGSGTDFTLTISSLQAEDIAVYFCQQSRKVPSTFGGGTKVEIK
notes: humanized

EC50 [3]: 0.11 nM
B7: 393E9_hVH6_hVL1 (antibody, V domains shown)
VH: EVQLVESGGGLVQPGGSLRLSCAASGFTFTDYYMSWVRQAPGKGLEWVGFIRNKGNGYTTENSASVKGRFTISRDNAKSSLYLQMNSLRAEDTAVYYCARYRGNPHYAMDYWGQGTLVTVSS
VL: DIVLTQSPDSLAVSLGERATINCRASESVEFYGTSFLQWYQQKPGQPPKLLIYGASNVESGVPDRFSGSGSGTDFTLTISSLQAEDIAVYFCQQSRKVPSTFGGGTKVEIK
notes: humanized

EC50 [3]: 0.13 nM
Kd [4]: 0.515 nM
koff [4]: 0.000112 s⁻¹
kon [4]: 217000 M⁻¹ s⁻¹
B9: 393E9_hVH1_hVL5 (antibody, V domains shown)
VH: EVQLVESGGGLVQPGGSLRLSCAASGFTFTDYYMSWVRQAPGKGLEWVGFIRNKGNGYTTENSASVKGRFTISRDNSKSTLYLQMNSLRAEDTAVYYCARYRGNPHYAMDYWGQGTLVTVSS
VL: EIVLTQSPGTLSLSPGERATLSCRASESVEFYGTSFLQWYQQKPGQAPRLLIYGASNVESGIPDRFSGSGSGTDFTLTISRLEPEDIAVYFCQQSRKVPSTFGGGTKVEIK
notes: humanized

EC50 [3]: 0.12 nM
Kd [4]: 0.594 nM
koff [4]: 0.00012 s⁻¹
kon [4]: 201000 M⁻¹ s⁻¹
B10: 393E9_hVH2_hVL2 (antibody, V domains shown)
VH: EVQLVESGGGLIQPGGSLRLSCAASGFTFTDYYMSWVRQPPGKGLEWVGFIRNKGNGYTTENSASVKGRFTISRDNSKSTLYLQMNSLRAEDTAVYYCARYRGNPHYAMDYWGQGTLVTVSS
VL: EIVLTQSPATLSVSPGERATLSCRASESVEFYGTSFLQWYQQKPGQAPRLLIYGASNVESGIPARFSGSGSGTEFTLTISSLQSEDIAVYFCQQSRKVPSTFGGGTKVEIK
notes: humanized

EC50 [3]: 0.2 nM
B11: 393E9_hVH3_hVL2 (antibody, V domains shown)
VH: QVQLVESGGGVVQPGGSLRLSCAASGFTFTDYYMSWVRQAPGKGLEWVGFIRNKGNGYTTENSASVKGRFTISRDNSKSTLYLQMNSLRAEDTAVYYCARYRGNPHYAMDYWGQGTLVTVSS
VL: EIVLTQSPATLSVSPGERATLSCRASESVEFYGTSFLQWYQQKPGQAPRLLIYGASNVESGIPARFSGSGSGTEFTLTISSLQSEDIAVYFCQQSRKVPSTFGGGTKVEIK
notes: humanized

EC50 [3]: 0.085 nM
B13: 393E9_hVH1_hVL3 (antibody, V domains shown)
VH: EVQLVESGGGLVQPGGSLRLSCAASGFTFTDYYMSWVRQAPGKGLEWVGFIRNKGNGYTTENSASVKGRFTISRDNSKSTLYLQMNSLRAEDTAVYYCARYRGNPHYAMDYWGQGTLVTVSS
VL: DIQLTQSPSSLSASVGDRVTITCRASESVEFYGTSFLQWYQQKPGKAPKLLIYGASNVESGVPSRFSGSGSGTDFTLTISSLQPEDIATYFCQQSRKVPSTFGGGTKVEIK
notes: humanized

EC50 [3]: 0.16 nM
B14: 393E9_hVH4_hVL4 (antibody, V domains shown)
VH: EVQLVESGGGLVQPGGSLRLSCAASGFTFTDYYMSWVRQAPGKGLEWVGFIRNKGNGYTTENSASVKGRFTISRDNSKSSLYLQMNSLKTEDTAVYYCARYRGNPHYAMDYWGQGTLVTVSS
VL: DIVLTQSPLSLPVTPGEPASISCRASESVEFYGTSFLQWYLQKPGQSPQLLIYGASNVESGVPDRFSGSGSGTDFTLKISRVEAEDIGVYFCQQSRKVPSTFGGGTKVEIK
notes: humanized

EC50 [3]: 0.14 nM
B15: 393E9_hVH6_hVL4 (antibody, V domains shown)
VH: EVQLVESGGGLVQPGGSLRLSCAASGFTFTDYYMSWVRQAPGKGLEWVGFIRNKGNGYTTENSASVKGRFTISRDNAKSSLYLQMNSLRAEDTAVYYCARYRGNPHYAMDYWGQGTLVTVSS
VL: DIVLTQSPLSLPVTPGEPASISCRASESVEFYGTSFLQWYLQKPGQSPQLLIYGASNVESGVPDRFSGSGSGTDFTLKISRVEAEDIGVYFCQQSRKVPSTFGGGTKVEIK
notes: humanized
